# Experimental data reported in US8372580B2, “BRCA1 function-based cellular assays” (Morehouse School of Medicine, priority 2008, dated 2013).
# Positions count from the first letter of the chain named. Numbers in names are those of the source.
# B1: BRCA1 (aa 1-182): amino-terminal BRCA1 fragment, residues 1-182, with N-terminal FLAG sequence (protein, UniProt P38398 1-182, looked up, fragment)
# chain: MDLSALRVEEVQNVINAMQKILECPICLELIKEPVSTKCDHIFCKFCMLKLLNQKKGPSQCPLCKNDITKRSLQESTRFSQLVEELLKIICAFQLDTGLEYANSYNFAKKENNSPEHLKDEVSIIQSMGYRNRAKRLLQSEPENPSLQETSLSVQLSNLGTVRTLRTKQRIQPQKTSVYIEL
# modifications: N-terminal FLAG tag
# B2: BRCA1 (aa 1-182) Mutant #1: BRCA1 1-182 fragment point mutant 1; apparently K109R (protein, UniProt P38398 1-182, looked up, fragment K109R)
# chain: B1 chain with K109R
# B3: BRCA1 (aa 1-182) Mut#4: BRCA1 1-182 fragment point mutant 4; apparently C61G (protein, UniProt P38398 1-182, looked up, fragment C61G)
# chain: B1 chain with C61G
# Tested on: ERα transcriptional activity in T47D breast cancer cells
# Experiment: Cell based assay #2: ERE-luciferase reporter, E2-induced ERα activation by Ubc9 C93S
# Conditions: Ubc9 C93S (SUMO-independent), E2 1 μM
# Experimental: T47D cells (5×10^5) were plated in 6-well plates for 24 hours. The cells were washed twice in PBS followed by the addition of phenol red free DMEM containing 5% charcoal-stripped FBS for 48 hrs before transfection. The cells were transfected with 1 μg of each of the indicated plasmids (with a total of 2.5 μg DNA) using lipofectamine 2000 (Life Technology, USA). The cells were induced with 1 μM of E2 4 hours after transfections, harvested after an additional 40 hrs and assayed for luciferase activity following the manufacturer's instructions. Each set of experiments was performed in triplicate and repeated a least three times.
row,Molecule,inhibition of E2-mediated ERα transcription activation by Ubc9/C93S
1,B1,inhibit E2-mediated ERα transcription activation by Ubc9/C93S
2,B2,"unlike their respective Mut #1 and Mut#4, inhibit"
3,B3,"unlike their respective Mut #1 and Mut#4, inhibit"
